Laboratory results published in the supplement of paper PMC12042874.
± gives the uncertainty stated by the source.

Experiment: amyloid nucleation score (Sup35N fusion, yeast selection) (log enrichment); library NNK3; higher = more nucleation; inactive = no reads after selection
How it was run: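 The nucleation score is a DiMSum log enrichment of output over input reads, centred on the mode score of non-aggregating sequences. Sequences under 100 input reads were excluded, and reads came from Illumina sequencing of plasmid inserts. Psi-negative yeast expressing Sup35N fused to peptides of 20 random codons were induced with 100 μM copper sulfate for 24 hours and grown 7 days at 30°C on medium lacking adenine and uracil. Random libraries had three technical output replicates.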

Row | Substance | amyloid nucleation score
1 | AANVESPKIYKWCINKRGMV | inactive
2 | AASPQARGCILSCNVSRNQT | inactive
3 | AASRMLWPGWNIRPSDAVVE | inactive
4 | ACAATYLIADAFYELSGIGL | inactive
5 | ACFWLIDVTKWLTCYRRSSN | inactive
6 | ACIVARARSSVVTCF | inactive
7 | ACLQRVQVKIHLGFTQTSFV | 0.487 ± 0.36
8 | ACSLSWCHTGCY | inactive
9 | ACSNWMRLMLVWNSTRNRVV | inactive
10 | ADFKKVSSLLRSTGLVGGFR | inactive
11 | ADKRFI | inactive
12 | AEALCQFIYCFAASKLTGVC | inactive
13 | AEASNGACLRLCWLVLVWMD | -0.206 ± 1.5
14 | AFISSKARTYKIRMMPVPTS | inactive
15 | AFLSLCKLDYSYANCLVIVV | inactive
16 | AFSIYHRIIIMRFRKYNIFA | inactive
17 | AFVFATAITELVYCSCLNRP | 2.04 ± 0.089
18 | AFVKFSRTWSSVSSLCGFQA | inactive
19 | AFYLMLVS | 1.12 ± 0.12
20 | AGCAIALLYGWESLRAVFL | inactive
21 | AGFAMYFGFVGYNFSFPWG | 1.17 ± 0.19
22 | AGGLSGDNWRRIDG | inactive
23 | AGPVPIT | 0.723 ± 0.25
24 | AGSDHVLRDRHYVVMPQEFL | inactive

Row | Substance | amyloid nucleation score
25 | AGSILYGHYLDACGRHSRVI | inactive
26 | AGTTEWRG | inactive
27 | AGWIDAYRFYNELLLGLRDH | inactive
28 | AHRRKLKWDNGHCNLRTKFR | inactive
29 | AIEKGHK | 0.235 ± 0.19
30 | AIGMMASRWNLWCITLFLLK | inactive
31 | AIINSVREPWAPAMAHTNNA | 0.586 ± 0.21
32 | AIRKL | inactive
33 | AITVGLSGARRD | inactive
34 | AIYVFIRLLYVNIHDTTPVR | inactive
35 | AKCFFPGVNLMVGSQLFWLR | inactive
36 | AKFARYSTYLPLLSVHDIND | inactive
37 | AKWMAFSSSSFRSCFFSFKQ | -0.804 ± 1.8
38 | AKWVLDFVKDRLPFRFCMLV | inactive
39 | ALAMTFVNIDKSFFFNVYSM | 2.89 ± 0.069
40 | ALCANYCFAMFSDSGLRWTV | 1.01 ± 0.09
41 | ALCKCALG | inactive
42 | ALFAGLIECQCDNILGPETG | inactive
43 | ALFYHFL | inactive
44 | ALLESFIKKRSMFLNVNGGF | inactive
45 | ALLTFILVLIVEVVNWRKVC | 0.961 ± 0.23
46 | ALMCIHRLCPNIVPDQ | inactive
47 | ALPREPESVLG | inactive
48 | ALRQRNDCEPYIVRTFWVET | inactive

Row | Substance | amyloid nucleation score
49 | ALRRVMVICLFKLDSEAHST | inactive
50 | ALSLYLISLWYGYSWYLRFD | inactive
51 | ALSRMGEFEDYCLTMGKKVF | inactive
52 | ALWLPITVDWMLESGCGGCY | inactive
53 | ALYRSGLNFVIRVGTLLMIW | 1.06 ± 0.12
54 | AMCCF | inactive
55 | AMFTRSRVSITLCGRWAYCS | inactive
56 | AMIMSFFWRKVT | inactive
57 | AMKSAW | inactive
58 | AMSTGSSTWWYRSSKAIRGS | inactive
59 | ANIFGVNTFGESRKHSIARC | inactive
60 | ANLSRSSTLLSGVWSEV | inactive
61 | ANRYNSITE | -0.765 ± 1.5
62 | ANSTNKQC | inactive
63 | ANVLFEVSACLAKGIVKVRR | inactive
64 | APRGVSTDLDAVHRWYYSGR | -0.025 ± 0.88
65 | APRLFKQIIVTQTDGSLEGE | inactive
66 | APSNGRE | inactive
67 | APTRSV | inactive
68 | AQRVMD | inactive
69 | AQYLLYINDPCTCVVATPCR | inactive
70 | ARCVVAFIILGNYR | 0.663 ± 0.21
71 | AREYDWQDYILVSVMYTLVW | inactive
72 | AREYMI | inactive

Row | Substance | amyloid nucleation score
73 | ARMLRYRHIAS | inactive
74 | ARSIFARLQYSHLSSRGEVI | 0.018 ± 1
75 | ARSNRCSM | inactive
76 | ASDKMELILLLTSYRSYYDC | inactive
77 | ASGFLYSSSHLERNKLVNKF | inactive
78 | ASGSFKPFFSVEWYLS | inactive
79 | ASLMERSIMYFVLVNNPRSE | 0.355 ± 0.29
80 | ASRHSQMWIS | 0.129 ± 0.88
81 | ASRIDNIDWGGRKKLRNVEG | inactive
82 | ASSLHDPMRYVQTFRISWCC | 1.34 ± 0.12
83 | ASTRNVGYRVT | inactive
84 | ATAVMVRILQRACTFLDAKS | inactive
85 | ATCWTLGNDVRFGMRAFTFV | inactive
86 | ATDCLCEQRPVFPNKVKWQS | inactive
87 | ATLDTER | inactive
88 | AVDLV | inactive
89 | AVEEHLIHLSCCVQAVNRRV | 2.36 ± 0.074
90 | AVGKM | -0.082 ± 0.88
91 | AVIDRNYVRTALAVMIASGH | inactive
92 | AVPNIL | inactive
93 | AVRWQSGSTRFLSCWLWQKN | inactive
94 | AVTKLILFVVSGGMLRVLEF | inactive
95 | AVVARGGVLVGTLCFLFWLS | inactive
96 | AVYGVFRRRS | inactive

Row | Substance | amyloid nucleation score
97 | AVYLCI | inactive
98 | AWLMRLMSYLGSSGWE | inactive
99 | AWLNFCPSHVLLLFESYLNV | inactive
100 | AWNFNLKLKELRKTMTS | inactive
101 | AWSWLRANSRTQFWSRGLKP | inactive
102 | AWVLCVKERFRSAGCECTGF | inactive
103 | AYADGYNLFWDYK | inactive
104 | AYETFGNCRLVASVIIDGIS | inactive
105 | AYINTRYGFFGNLVDDTKSS | inactive
106 | AYLFLLWSW | inactive
107 | AYRLEPT | inactive
108 | AYSSHFTCRPYGFNLWSLGS | inactive
109 | AYVFVYESYAWGNLRQ | inactive
110 | AYYKCWNNATDLVTNVPPIH | inactive
111 | CAFLFL | inactive
112 | CALCRYC | inactive
113 | CASLCHSSGVCRD | inactive
114 | CCGVLQRMKISQKVN | inactive
115 | CCIMLTWKRCLNKRLVTTDP | inactive
116 | CCIMQPCSVVVYQWSQNRSR | 3.14 ± 0.053
117 | CCKSCSTLFLNFSLFNDLLT | inactive
118 | CCKTFYY | inactive
119 | CCNMYVSFTCWHRRRSFS | 1.23 ± 0.13
120 | CCRLVRHFE | inactive

Row | Substance | amyloid nucleation score
121 | CDEGSGWILFIRHLLLYWRG | inactive
122 | CDFTKSNDTCMDTASMSLLV | inactive
123 | CDFTRESYTDNTAASIPMLM | inactive
124 | CDNWLSYMWFYGNGAAPEGR | 2.06 ± 0.094
125 | CDNYVLPNYRYLSGFFKFGL | inactive
126 | CDWPPAFYQC | inactive
127 | CDYIKAKSVTDVCGNP | inactive
128 | CEDGA | -0.068 ± 0.75
129 | CEGRHKFF | inactive
130 | CEIVFQYVFNFFSPTTSVVC | 1.54 ± 0.089
131 | CERKQVYNDRRINS | inactive
132 | CFAIWVCKSVR | inactive
133 | CFASTRSGVILNYTMVVVDF | 1.78 ± 0.098
134 | CFDFSCVFLKEMQYGGETGS | 1.07 ± 0.12
135 | CFDLVCTLCFLFRLARVVEW | inactive
136 | CFKRLVIIMGGLGAA | inactive
137 | CFPCLWP | 1.26 ± 0.12
138 | CFQQVHN | inactive
139 | CFRAGVIFIWGVHNSYYRTS | 2.23 ± 0.082
140 | CFSELIYMLLNVDGNFSLRV | inactive
141 | CFTRLVRRGNSQIKRAPGEP | inactive
142 | CFVAILNVIFGWSY | 1.43 ± 0.069
143 | CFVKGFTIETFWLKVVGIRG | inactive
144 | CGDLVGTSKYSTLLEWRS | inactive

Row | Substance | amyloid nucleation score
145 | CGIYTFLRLRD | inactive
146 | CGLQLQCMVEVLVVCPEQLL | 0.737 ± 0.16
147 | CGMLTGVIKNLDLTRRYKC | inactive
148 | CGRRALSTELIVCLCSPFYV | inactive
149 | CGTSHVMFWHVPRGVLKRMY | inactive
150 | CHASVW | inactive
151 | CHILKPWLGVRKPSPFCNYS | inactive
152 | CIIFTRMATTGG | inactive
153 | CIIRVYCFWFTDGDFYVLYR | inactive
154 | CIREKLILIMTSRSIMLLKS | inactive
155 | CIVLTVKCSLA | -0.669 ± 0.55
156 | CKCVCNGAKDRFST | inactive
157 | CKTVAYEYFTGLSLVLDFTR | inactive
158 | CKVSAL | inactive
159 | CKVTHSLI | inactive
160 | CLALYRGRMLSGKVRRCTTS | inactive
161 | CLEPNILVLIMEFVY | inactive
162 | CLFRQTFCMGP | inactive
